Test results from US12319739 (F STAR DELTA, dated 2025).
Changes are numbered by the printed parent chain.

What was measured:
hMSLN-His-Avi [1] = molecular target: T1, hMSLN-His-Avi (human, UniProt Q13421 296-598, single biotin on the Avi tag in the biotinylated form); assay: ratio of SPR KDs
T1 construct: Monomeric; also called human MSLN-His-Avi; hMSLN-Avi-His

[2] = molecular target: T2, human CD137 on primary human CD8+ T cells (human, UniProt Q07011 24-255); assay: cell-based or functional assay
T2 sequence (Q07011 24-255): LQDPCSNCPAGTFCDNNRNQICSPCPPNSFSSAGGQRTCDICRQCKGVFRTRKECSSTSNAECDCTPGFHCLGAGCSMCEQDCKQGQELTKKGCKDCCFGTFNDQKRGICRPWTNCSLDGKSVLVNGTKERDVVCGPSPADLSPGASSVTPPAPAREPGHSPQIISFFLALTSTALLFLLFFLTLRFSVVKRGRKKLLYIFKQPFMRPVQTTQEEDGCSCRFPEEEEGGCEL

[3] = molecular target: T3, endogenous cell surface human MSLN (human, UniProt Q13421 296-598); assay: flow cytometry, NCI-H226 cells
T3 construct: whole, on cells; The cell line is named under assay; also called cell-surface MSLN on NCI-H226, OVCAR-3 and AsPC-1 cells
T3 sequence (Q13421 other isoform, or with tags, fused parts or gaps limits assumed): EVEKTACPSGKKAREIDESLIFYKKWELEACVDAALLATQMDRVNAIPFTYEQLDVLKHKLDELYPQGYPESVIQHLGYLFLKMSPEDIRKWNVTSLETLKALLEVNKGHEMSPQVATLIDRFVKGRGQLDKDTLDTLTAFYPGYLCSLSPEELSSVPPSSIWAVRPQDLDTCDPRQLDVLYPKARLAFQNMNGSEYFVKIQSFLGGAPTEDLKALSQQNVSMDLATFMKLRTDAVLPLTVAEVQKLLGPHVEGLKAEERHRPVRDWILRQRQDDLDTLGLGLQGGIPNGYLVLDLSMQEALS

cMSLN-His-Avi [4] = molecular target: T4, cMSLN-His-Avi (cynomolgus, single biotin on the Avi tag in the biotinylated form); assay: SPR, mAb2 captured on Protein G, MSLN in solution
T4 construct: Monomeric; also called cyno MSLN-His-Avi; cMSLN-Avi-His
T4 chain: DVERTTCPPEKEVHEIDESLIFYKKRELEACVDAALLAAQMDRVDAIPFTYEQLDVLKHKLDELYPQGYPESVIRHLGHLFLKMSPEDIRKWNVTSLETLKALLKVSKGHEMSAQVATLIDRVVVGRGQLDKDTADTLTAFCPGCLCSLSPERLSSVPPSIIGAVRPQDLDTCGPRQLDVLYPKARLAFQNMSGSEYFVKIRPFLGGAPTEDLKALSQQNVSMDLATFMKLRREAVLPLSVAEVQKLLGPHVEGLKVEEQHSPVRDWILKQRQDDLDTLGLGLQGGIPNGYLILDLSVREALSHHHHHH
Description: (§1) The association time was 5 min and the dissociation time was 5 min. Running buffer was HBS-EP (GE Healthcare BR100188). Flow cells were regenerated by injecting Glycine-HCl pH2.1 at a flow rate of 30 μl/min for 15 seconds. The data was analysed as described in Example 7.1.

[5] = molecular target: T3, endogenous cell surface human MSLN; assay: flow cytometry, NCI-H226 cells + 20 nM soluble MSLN
hMSLN-His-Avi [6] = molecular target: T1, hMSLN-His-Avi; assay: SPR, hMSLN-His-Avi immobilised ~100 RU, mAb2 injected
cMSLN-His-Avi [7] = molecular target: T4, cMSLN-His-Avi; assay: SPR, mAb2 captured on Protein G, cMSLN-His-Avi in solution
Description: as §1

hMSLN-His-Avi [8] = molecular target: T1, hMSLN-His-Avi; assay: SPR, mAb2 captured on Protein G, hMSLN-His-Avi in solution
Description: as §1

hMSLN-His-Avi [9] = molecular target: T1, hMSLN-His-Avi; assay: ratio of SPR KDs; remark: listed apart in the source
[10] = molecular target: T2, human CD137 on primary human CD8+ T …; assay: cell-based or functional assay; remark: listed apart in the source
[11] = molecular target: T2, human CD137 on primary human CD8+ T …; assay: cell-based or functional assay; remark: listed apart in the source
[12] = molecular target: T2, human CD137 on primary human CD8+ T …; assay: cell-based or functional assay; remark: listed apart in the source
[13] = molecular target: T3, endogenous cell surface human MSLN; assay: flow cytometry, AsPC-1 cells
[14] = molecular target: T3, endogenous cell surface human MSLN; assay: flow cytometry, OVCAR-3 cells
hMSLN-His-Avi [15] = molecular target: T1, hMSLN-His-Avi; assay: SPR, hMSLN-His-Avi immobilised
hMSLN-His-Avi [16] = molecular target: T1, hMSLN-His-Avi; assay: SPR, hMSLN-His-Avi in solution
[17] = molecular target: T3, endogenous cell surface human MSLN; assay: flow cytometry, NCI-H226 cells; remark: listed apart in the source
cMSLN-His-Avi [18] = molecular target: T4, cMSLN-His-Avi; assay: SPR steady state, antigen immobilised ~50 RU
Description: The association time was 1000 sec to steady state and the dissociation time was 30 sec. Running buffer was HBS-EP (GE Healthcare BR100188). Flow cells were regenerated by injecting Glycine-HCl pH1.5 at a flow rate of 30 μl/min for 30 seconds. Data were analysed by double referencing against a flow cell which was intentionally left blank (no antigen coating). Steady state affinity model was used to analyse kinetic data using the BiaEvaluation software version 3.2.

hCD137-mFc-Avi = molecular target: T5, hCD137-mFc-Avi (human; mouse, UniProt Q07011 24-186, one biotin on each Avi tag in the biotinylated form); assay: SPR, mAb2 captured by anti-human Fab, hCD137-mFc-Avi in solution
T5 construct: also called human dimeric CD137; human CD137-mFc-Avi
T5 sequence (Q07011 24-186): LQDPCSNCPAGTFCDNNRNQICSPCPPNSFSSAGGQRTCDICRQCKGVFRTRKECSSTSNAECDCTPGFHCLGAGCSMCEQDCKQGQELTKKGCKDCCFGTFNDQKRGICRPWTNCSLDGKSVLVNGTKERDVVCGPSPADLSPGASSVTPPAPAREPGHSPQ
Description: A Biacore CM5 chip was coated with anti-human Fab using a Human Fab Capture Kit (GE Healthcare 28958325) according to manufacturer's conditions, to a surface density of approximately 9000 RU. […] The association time was 5 min and the dissociation time was 5 min. Running buffer was HBS-EP. Flow cells were regenerated by injecting two repeat injections of 10 mM glycine-HCl at pH 2.1 at a flow rate of 30 μl/min for 30 seconds. Data analysis was performed as described in earlier examples (see e.g. Example 7.1).

hMSLN-His-Avi [19] = molecular target: T1, hMSLN-His-Avi; assay: SPR, hMSLN-His-Avi immobilised ~100 RU, mAb2 injected; immobilised human MSLN (antigen capture), not MSLN in solution
Description: 7.1 Binding of CD137/MSLN mAb2 to Human MSLN Under Avid Conditions—Antigen Capture Method Binding of all mAb^2 to MSLN immobilised on a BIAcore chip was tested to determine the binding affinity to human MSLN under avid conditions, where a high concentration of immobilised antigen is available to allow the antibody to bind avidly. […] The association time was 5 min and the dissociation time was 10 min. Running buffer was HBS-EP (GE Healthcare BR100188). Flow cells were regenerated by injecting Glycine-HCl pH1.5 at a flow rate of 30 μl/min for 30 seconds. Data were analysed by double referencing against a flow cell which was intentionally left blank (no antigen coating). The binding kinetics were fitted with a 1:1 Langmuir model to generate binding association (k_a) and dissociation (k_d) rates. Equilibrium binding constants (K_D) were calculated by dividing the dissociation rate by the association rate for each sample. Data analysis was performed with BiaEvaluation software version 3.2.

mMSLN-His-Avi [20] = molecular target: T6, mMSLN-His-Avi (mouse, UniProt Q61468 298-600, single biotin on the Avi tag in the biotinylated form); assay: ratio of SPR KDs
T6 construct: also called mouse MSLN-His-Avi
T6 sequence: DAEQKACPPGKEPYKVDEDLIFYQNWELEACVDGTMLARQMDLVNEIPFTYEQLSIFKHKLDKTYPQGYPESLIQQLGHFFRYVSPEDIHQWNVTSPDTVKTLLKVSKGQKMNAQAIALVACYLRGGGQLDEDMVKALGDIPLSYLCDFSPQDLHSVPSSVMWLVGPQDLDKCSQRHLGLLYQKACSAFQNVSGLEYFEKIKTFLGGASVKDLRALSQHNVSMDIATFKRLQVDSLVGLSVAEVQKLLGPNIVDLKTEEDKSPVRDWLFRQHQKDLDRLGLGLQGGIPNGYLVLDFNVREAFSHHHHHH
Description: (§2) To determine the affinity for soluble MSLN the mAb^2 was captured via an anti-human Fc. Briefly, 25 µg/ml anti-human IgG (Fc) antibody (GE Healthcare, Human Antibody Capture Kit, BR100839) was immobilised on a Biacore sensor chip CM5 (GE Healthcare, BR100530) achieving a final response of approximately 750 RU. The mAb^2 molecule, diluted in HBS-EP buffer (GE Healthcare, BR100188) at 50 nM, was injected individually at 30 µl/min to achieve a response of approximately 100 RU. The recombinant mMSLN-His-Avi antigen, diluted in HBS-EP buffer, was injected at a concentration range of 243 nM to 0.11 nM with 3-fold dilutions for 5 minutes at 70 µl/min and then allowed to dissociate in buffer for 5 minutes. Regeneration was achieved by injecting 3 M magnesium chloride (GE Healthcare, Human Antibody Capture Kit, BR100839) for 30 seconds at a rate of 30 µl/min.

mMSLN-His-Avi [21] = molecular target: T6, mMSLN-His-Avi; assay: SPR, mMSLN-His-Avi immobilised at 50 RU
mMSLN-His-Avi [22] = molecular target: T6, mMSLN-His-Avi; assay: SPR, mAb2 captured by anti-human Fc, mMSLN-His-Avi in solution
Description: as §2

T1 sequence (Q13421 other isoform, or with tags, fused parts or gaps): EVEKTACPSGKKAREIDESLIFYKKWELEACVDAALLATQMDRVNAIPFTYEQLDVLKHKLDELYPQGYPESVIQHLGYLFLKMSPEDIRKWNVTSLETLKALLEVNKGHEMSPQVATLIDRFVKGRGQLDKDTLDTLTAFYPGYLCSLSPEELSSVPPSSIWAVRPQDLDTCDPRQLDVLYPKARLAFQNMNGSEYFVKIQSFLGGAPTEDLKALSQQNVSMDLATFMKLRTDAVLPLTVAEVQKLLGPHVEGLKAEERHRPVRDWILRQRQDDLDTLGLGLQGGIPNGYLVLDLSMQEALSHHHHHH

B1: FS22-172-003-AA/FS28-024-060 (bispecific antibody, human IgG1, kappa, L234A L235A, V domains shown)
VH: EVQLLESGGGLVQPGGSLRLSCAASGFTLSYSSMSWVRQAPGKGLEWVSFITPSTGYTHYADSVKGRFTISRDNSKNTLYLQMNSLRAEDTAVYYCARRALWFDYWGQGTLVTVSS
VL: EIVLTQSPGTLSLSPGERATLSCRASQSVSSSYLAWYQQKPGQAPRLLIYGASSRATGIPDRFSGSGSGTDFTLTISRLEPEDFAVYYCQQASSYPLTFGQGTKVEIKR
notes: IgG1 mAb^2 with LALA
KD ratio in solution/immobilised human MSLN (hMSLN-His-Avi [1]): 33 | Emax (IL-2 pg/ml), NCI-H226 co-culture, Donor A [2]: 1400 pg/mL | Emax (IL-2 pg/ml), NCI-H226 co-culture, Donor B [2]: 1940 pg/mL | IL-2 release EC50, NCI-H226 co-culture, Donor A [2]: 0.04 nM | IL-2 release EC50, NCI-H226 co-culture, Donor B [2]: 0.06 nM | EC50 [3]: 0.695 nM | Emax (MFI) [3]: 840000 MFI | fold less cross reactive compared to human MSLN (cMSLN-His-Avi [4]): 54 fold | EC50 [5]: 4.69 nM | Emax (MFI) [5]: 930000 MFI | Kd (hMSLN-His-Avi [6]): 0.13 nM | Kd (cMSLN-His-Avi [7]): 230 nM | Kd (hMSLN-His-Avi [8]): 4.27 nM

B2: FS22-172-003-AA/FS28-256-271 (bispecific antibody, human IgG1, kappa, L234A L235A, V domains shown)
VH: EVQLLESGGGLVQPGGSLRLSCAASGFTFTHTYMSWVRQAPGKGLEWVSAISPTYSTTNYADSVKGRFTISRDNNKNTLYLQMNSLRAEDTAVYYCARYNAYHAALDYWGQGTLVTVSS
VL: B1 VL with A92T, S93V, S94P, L97Y
notes: IgG1 mAb^2 with LALA; also called anti-human CD137/MSLN mAb^2
ratio of KD in solution/immobilised (hMSLN-His-Avi [9]): 3 | KD ratio in solution/immobilised human MSLN (hMSLN-His-Avi [1]): 3 | fold change of IL-2 EC50 with soluble MSLN against none, NCI-H226 co-culture [10]: 3 fold | IL-2 release EC50, NCI-H226 co-culture, +2 nM sMSLN [11]: 0.139 nM | IL-2 release EC50, NCI-H226 co-culture, +20 nM sMSLN [11]: 0.353 nM | IL-2 release EC50, NCI-H226 co-culture, no sMSLN [11]: 0.117 nM | IFNγ production EC50 (96 h), AsPC-1 co-culture, Donor G [12]: 0.147 nM | IFNγ production EC50 (96 h), AsPC-1 co-culture, Donor H [12]: 0.164 nM | IFNγ production EC50 (96 h), AsPC-1 co-culture, Donor J [12]: 0.344 nM | IFNγ production EC50 (96 h), NCI-H226 co-culture, Donor G [12]: 0.0332 nM | IFNγ production EC50 (96 h), NCI-H226 co-culture, Donor H [12]: 0.0732 nM | IFNγ production EC50 (96 h), OVCAR-3 co-culture, Donor H [12]: 0.084 nM | IL-2 production EC50 (72 h), AsPC-1 co-culture, Donor C [12]: 0.778 nM | IL-2 production EC50 (72 h), AsPC-1 co-culture, Donor D [12]: 0.841 nM | IL-2 production EC50 (72 h), NCI-H226 co-culture, Donor C [12]: 0.111 nM | IL-2 production EC50 (72 h), NCI-H226 co-culture, Donor D [12]: 0.112 nM | IL-2 production EC50 (72 h), NCI-H226 co-culture, Donor E [12]: 0.0722 nM | IL-2 production EC50 (72 h), NCI-H226 co-culture, Donor F [12]: 0.0723 nM | IL-2 production EC50 (72 h), OVCAR-3 co-culture, Donor E [12]: 0.145 nM | IL-2 production EC50 (72 h), OVCAR-3 co-culture, Donor F [12]: 0.0693 nM | EC50 [13]: 0.293 nM | EC50 [14]: 0.306 nM | Kd (hMSLN-His-Avi [15]): 5.9 nM | Kd (hMSLN-His-Avi [16]): 18.2 nM | EC50 [17]: 0.304 nM | fold difference of binding to cMSLN against hMSLN (cMSLN-His-Avi [18]): ≤ 3 fold | Kd (hMSLN-His-Avi [8]): 18.2 nM | Kd (hCD137-mFc-Avi): 1.26 nM | Kd (hMSLN-His-Avi [19]): 5.9 nM

B3: FS22m-063-AA/FS28m-228 (bispecific antibody, human IgG1, kappa, L234A L235A, V domains shown)
VH: EVQLLESGGGLVQPGGSLRLSCAASGFTFSTYFMVWVRQAPGKGLEWVSMISPKSSNTYYADSVKGRFTISRDNSKNTLYLQMNSLRAEDTAVYYCARWFTPARFDYWGQGTLVTVSS
VL: B1 VL with A92P, S93F, S94P, Y95F, P96S, L97F
notes: IgG1 mAb^2 with LALA; also called anti-mouse CD137/MSLN mAb^2
ratio of KD in solution/immobilised (mMSLN-His-Avi [20]): 31.9 | Kd (mMSLN-His-Avi [21]): 7.9 nM | Kd (mMSLN-His-Avi [22]): 252 nM

B4: FS22m-063-AA/FS28m-228-010 (bispecific antibody, human IgG1, kappa, L234A L235A, V domains shown)
VH: B3 VH with W99Y, F100H, T101I, P102S, A103P
VL: B1 VL with A92P, S93F, S94P, Y95F, P96S, L97F
notes: IgG1 mAb^2 with LALA
ratio of KD in solution/immobilised (mMSLN-His-Avi [20]): 23.2 | Kd (mMSLN-His-Avi [21]): 2.6 nM | Kd (mMSLN-His-Avi [22]): 60.2 nM
